In the supplement of paper PMC9732359:
± gives the uncertainty stated by the source.

Assay: protein stability index of a GFP-peptide fusion (yeast GPS) (PSI 1-4); higher = more stable; sorted into four equal gates, so the index is relative within each strain
Summary of the method: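 Plasmids isolated from each sorting gate were PCR-amplified and Illumina-sequenced, and barcodes assigned the reads to strains. The gates, four of equal size, were set by GFP/Cherry fluorescence ratio on mid-log cultures in leucine-free medium. These cultures were yeast carrying a pooled library of tiled 17-residue yeast protein peptides fused downstream of GFP on a plasmid that also expresses Cherry. The protein stability index is the sum of every gate's read frequency times its gate number.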

Sequence	protein stability index (doa10∆)	protein stability index (pdr5∆)	protein stability index (san1∆)	protein stability index (ubr1∆)
SKDIETLKKEWLKEYED [YIL149C/MLP2]	3.34 ± 0.093	3.16 ± 0.085	3.26 ± 0.053	3.15 ± 0.051
SKGSFINIAQMSACVGQ [RPO21]	1.44 ± 0.059	1.61 ± 0.053	1.3 ± 0.082	1.67 ± 0.051
SKICLSHFSLDQFITSL [ITC1]	2.21 ± 0.06	2.86 ± 0.076	2.17 ± 0.081	2.69 ± 0.057
SKIFNESFPDDIPLAKA [CDC53]	2.68 ± 0.056	2.89 ± 0.067	2.55 ± 0.049	2.82 ± 0.037
SKISQMAQNKTHIPQTN [YLR018C/POM34]	1.83 ± 0.24	2.21 ± 0.12	2.07 ± 0.1	1.95 ± 0.07
SKKAEKTGTKPAAVFAE [RPL4B]	2.52 ± 0.068	2.8 ± 0.084	2.44 ± 0.072	2.75 ± 0.061
SKLDIYTQQQALEYIGA [RET1]	1.94 ± 0.12	2.23 ± 0.1	2.59 ± 0.12	1.89 ± 0.13
SKLEGTINKAVQVKVLG [ESC2]	1.57 ± 0.11	1.93 ± 0.12	1.66 ± 0.21	1.75 ± 0.086
SKLLYDDVTCDKLSVSE [SIN4]	3.08 ± 0.07	3.02 ± 0.053	2.86 ± 0.051	3.23 ± 0.043
SKLSEHLNHYILLRYHH [YCG1]	2.16 ± 0.067	1.73 ± 0.059	1.82 ± 0.091	2.02 ± 0.062
SKLSKNISFYKLHVNWN [SIN4]	2.04 ± 0.076	1.79 ± 0.071	2.02 ± 0.11	2.04 ± 0.06
SKLSQEFLYPHLNFPNV [SNF12]	2.88 ± 0.08	2.96 ± 0.088	2.82 ± 0.069	3.02 ± 0.065
SKMLDAASSQVSIVKLD [SNF12]	2.89 ± 0.086	2.89 ± 0.11	3.03 ± 0.096	2.95 ± 0.091
SKPAFSFGAKSDEKKDG [YJL041W/NSP1]	3.25 ± 0.17	2.97 ± 0.13	3.25 ± 0.12	
SKPESSVLQLIVSEDHI [MED1]	2.14 ± 0.16	2.17 ± 0.079	2.06 ± 0.14	2.7 ± 0.092
SKQDASPKPYAVKYGLN [RPL8A]	3.3 ± 0.12	3.2 ± 0.096	3.23 ± 0.095	3.14 ± 0.095
SKQDVEALIEFIYDTEK [FAS2]	3.23 ± 0.1	3.17 ± 0.083	3.04 ± 0.13	3.08 ± 0.073
SKSEFAHRIMLTNILRM [FAS2]	1.62 ± 0.066	1.67 ± 0.068	1.46 ± 0.14	1.85 ± 0.081
SKYGMLLLRCDDRVDKK [POP3]	3.34 ± 0.14	3.35 ± 0.087	3.03 ± 0.076	3.09 ± 0.077
SLAATYSMISLQNCCII [ARP9]	1.47 ± 0.057	1.33 ± 0.056	1.26 ± 0.099	1.26 ± 0.041

Sequence	protein stability index (doa10∆)	protein stability index (pdr5∆)	protein stability index (san1∆)	protein stability index (ubr1∆)
SLDMNSMNKELIAIVSK [NUT1]	1.56 ± 0.19	1.44 ± 0.13		1.19 ± 0.088
SLDRVAWRTLVGVSHTN [CYT1]	1.3 ± 0.053	1.31 ± 0.048	1.34 ± 0.11	1.25 ± 0.043
SLENNIREFPEYFAAQA [RPL10]	2.3 ± 0.065	2.66 ± 0.068	2.75 ± 0.05	2.52 ± 0.062
SLEQRQEVTKFAKANIG [RPN4]	2.82 ± 0.15	2.98 ± 0.24	2.83 ± 0.11	
SLGFLQQSNKLHCCIQL [RPN3]	2.39 ± 0.06	2.47 ± 0.085	1.86 ± 0.12	2.14 ± 0.058
SLHNTEKIMENKYPELL [AAR2]	2.94 ± 0.052	3.18 ± 0.058	3 ± 0.038	2.86 ± 0.034
SLIENKKAKLVLIANDV [RPL8B]	2.32 ± 0.13	3.23 ± 0.17	2.99 ± 0.12	2.35 ± 0.14
SLKNDLPQFRSSIQESL [ECM29]	2.9 ± 0.076	2.92 ± 0.07	3.22 ± 0.077	3.07 ± 0.087
SLLLTNVIITGSTSLIE [ARP7]	1.54 ± 0.033	1.6 ± 0.034	1.66 ± 0.051	1.39 ± 0.028
SLNEDVEEIKLQKEKEL [SMC2]		1.83 ± 0.25		
SLNFIPITASTSRVFAK [YML103C/NUP188]		1.58 ± 0.28	2.06 ± 0.26	
SLNNSDSLISGVKQKIT [BRR2]	2 ± 0.085	1.87 ± 0.056	1.61 ± 0.16	2.31 ± 0.049
SLPEELKKRYDLSYNFN [YMR129W/POM152]	2.84 ± 0.1	2.67 ± 0.094	2.9 ± 0.08	2.94 ± 0.091
SLPHFPKNSKTPQSKGF [RPO31]	2.94 ± 0.23	3.08 ± 0.22	2.67 ± 0.18	2.98 ± 0.21
SLQEDVSFDFNGVPGQA [MED8]	2.41 ± 0.06	2.97 ± 0.057	2.64 ± 0.086	3 ± 0.053
SLQSCSVAVHFQYVIDE [SMC4]	1.82 ± 0.082	1.3 ± 0.039	1.47 ± 0.084	1.54 ± 0.048
SLRSNVVVAETSPEKKD [YAR002W/NUP60]	2.23 ± 0.05	2.63 ± 0.063	2.21 ± 0.069	2.4 ± 0.061
SLSAYNLTDEGYQWGEE [PRP8]	3.33 ± 0.22	3.12 ± 0.15		3.33 ± 0.19
SLSEFARRRQPTDQNNQ [SNF2]	2.89 ± 0.11	3.12 ± 0.13	3.1 ± 0.067	2.87 ± 0.1
